In US20230119290A1 (UNIVERSIT T ZU K LN, published 2023):
Each block holds one molecule with its values, some of them ahead of it.

How the values were obtained:
[1] = target: sFlt-1 (soluble splice variant of VEGF receptor 1) in human serum (human) (UniProt P17948); test: adsorption of sFlt-1 from preeclampsia patient serum on agarose column, sFlt-1 ELISA before and after
[2] = target: sFlt-1 (soluble splice variant of VEGF receptor 1) in human serum (human) (UniProt P17948); test: cell-based or functional assay
[3] = target: sFlt-1 (soluble splice variant of VEGF receptor 1) in human serum (human) (UniProt P17948); test: adsorption of sFlt-1 from human serum on ligand column (agarose), sFlt-1 ELISA of flow through
[4] = target: sFlt-1 (soluble splice variant of VEGF receptor 1) in human serum (human) (UniProt P17948); test: single run of serum of 10 preeclampsia patients over scVEGF^165 column, sFlt-1 ELISA before and after
[5] = target: T1, VEGF-Trap (chimeric protein of VEGFR-1 domain 2 and VEGFR-2 domain 3 fused to Fc) (UniProt P17948 129-230; P35968 225-327); test: solid phase ELISA, VEGF/PIGF variant immobilised, VEGF-trap titrated 0.1 to 750 nM, Kd from saturation curve
T1 construct: also called VEGFR1/R2 trap; not shown: Fc segment
Method: ELISA style binding assays were performed as described previously (Agarwal et al., 2012). In brief, 10 µg/ml of recombinant VEGF, PIGF and their mutant variants were individually immobilized together with bovine serum albumin (BSA) on 96 well plate (Transparente Immuno Standardmodule, Thermo scientific, Denmark), while matrix loaded only with BSA served as a control. A binding saturation curve was generated by applying increasing concentrations of VEGFR1/R2 trap ranging from 0,1 to 750 nM, followed by detection of the ligand-receptor complex using a horseradish peroxidase (HRP)-conjugated antibody against the mouse Fc domain of VEGFR1/R2 trap. Luminescence was quantified at optical density (OD) 450 nm using a by spectrophotometer (Thermo ScientificMultiskan GO, Finland).

sFlt-1 (soluble splice variant of VEGF receptor 1) in human serum (human), sequence (P17948 other isoform, or with tags, fused parts or gaps mutant): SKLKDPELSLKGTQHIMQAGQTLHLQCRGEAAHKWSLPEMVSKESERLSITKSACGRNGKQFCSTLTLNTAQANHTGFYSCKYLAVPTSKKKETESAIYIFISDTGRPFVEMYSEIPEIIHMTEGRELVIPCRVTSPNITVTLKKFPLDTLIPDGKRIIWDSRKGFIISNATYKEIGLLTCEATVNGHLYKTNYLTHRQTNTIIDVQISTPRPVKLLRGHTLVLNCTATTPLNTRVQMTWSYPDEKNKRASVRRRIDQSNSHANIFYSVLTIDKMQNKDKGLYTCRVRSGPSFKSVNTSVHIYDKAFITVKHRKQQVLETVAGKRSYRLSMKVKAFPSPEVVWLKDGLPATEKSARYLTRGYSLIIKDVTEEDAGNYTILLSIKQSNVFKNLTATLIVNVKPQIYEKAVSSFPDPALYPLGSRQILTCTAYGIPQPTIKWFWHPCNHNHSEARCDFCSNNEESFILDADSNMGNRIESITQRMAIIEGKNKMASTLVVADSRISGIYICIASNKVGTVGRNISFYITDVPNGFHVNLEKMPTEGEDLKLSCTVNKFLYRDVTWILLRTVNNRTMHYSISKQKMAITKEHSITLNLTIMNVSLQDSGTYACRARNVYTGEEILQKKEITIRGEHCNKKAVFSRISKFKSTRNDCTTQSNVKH
T1 sequence (P17948 other isoform, or with tags, fused parts or gaps mutant): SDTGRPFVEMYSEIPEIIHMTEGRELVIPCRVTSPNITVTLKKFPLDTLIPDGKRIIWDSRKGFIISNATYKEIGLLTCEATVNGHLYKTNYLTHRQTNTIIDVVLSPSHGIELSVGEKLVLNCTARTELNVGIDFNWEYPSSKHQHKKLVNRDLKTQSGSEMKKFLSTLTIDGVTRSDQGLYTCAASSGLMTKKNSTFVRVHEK

reduction of sFlt-1 in a single run [1]: 89.9% | PIGF release (free PIGF in serum after against before the column) [2]: 20 fold | PIGF release (free PIGF in serum after against before the column), median [2]: 14.6 fold | VEGF release (free VEGF in serum after against before the column) [2]: 9.07 fold | VEGF release (free VEGF in serum after against before the column), median [2]: 8.74 fold | reduction of sFlt-1 in a single run [3]: 86.2% | sFlt-1 reduction (mean of 10 patient samples) [4]: 88% | sFlt-1 reduction (median of 10 patient samples) [4]: 92.2%
Molecule: single chain VEGF^165 dimer (scVEGF^165) (from UniProt P49151 27-190) (ligand)

reduction of sFlt-1 in a single passage [1]: 77.2% | fold higher affinity compared to moPIGF [5]: 2.6 fold
B1: monomeric wildtype VEGF^165 (moVEGF^165) (ligand, human, UniProt P15692-4 27-191, looked up)
chain: APMAEGGGQNHHEVVKFMDVYQRSYCHPIETLVDIFQEYPDEIEYIFKPSCVPLMRCGGCCNDEGLECVPTEESNITMQIMRIKPHQGQHIGEMSFLQHNKCECRPKKDRARQENPCGPCSERRKHLFVQDPQTCKCSCKNTDSRCKARQLELNERTCRCDKPRR
notes: mature; Expressed from a monomeric construct in HEK293T cells; not shown: N-terminal Strep tag from the expression vector

reduction of sFlt-1 in a single passage [1]: 46.2%
B2: monomeric PIGF (moPIGF) (ligand, UniProt P49763-2 19-149, looked up, not shown: small tags and cut ends)
chain: LPAVPPQQWALSAGNGSSEVEVVPFQEVWGRSYCRALERLVDVVSEYPSEVEHMFSPSCVSLLRCTGCCGDENLHCVPVETANVTMQLLKIRSGDRPSYVELTFSQHVRCECRPLREKMKPERCGDAVPRR
